In PMC10967716 one finds stoichiometry N data, which are given here for three substances.

Holding throughout (assay): SEC
Test [1] addresses α-Methylacyl-CoA racemase from Mycobacterium tuberculosis, H126A mutant (M. tuberculosis) (UniProt O06543).
Test [2] concerns the target α-Methylacyl-CoA racemase from Mycobacterium tuberculosis, D156A mutant (M. tuberculosis) (UniProt O06543).
For test [3], the target named is α-Methylacyl-CoA racemase from Mycobacterium tuberculosis, E241A mutant (M. tuberculosis) (UniProt O06543).

As usually defined, the stoichiometry N is a count of units in the complex or per binding partner. For the substance “α-Methylacyl-CoA racemase from Mycobacterium tuberculosis, H126A mutant (from UniProt O06543 1-360) (enzyme)”, in test [1], the stoichiometry N was 2.
Substance “α-Methylacyl-CoA racemase from Mycobacterium tuberculosis, D156A mutant (from UniProt O06543 1-360) (enzyme)” came in with a stoichiometry N in test [2] of 2.
“α-Methylacyl-CoA racemase from Mycobacterium tuberculosis, E241A mutant (from UniProt O06543 1-360) (enzyme)”: in test [3], the stoichiometry N was determined as 2.
